In the RNAGym collection of RNA variant scans (doi:10.1073/pnas.2313332121):

B1: TPR t1 (parent)
chain: GACCAAUCUGCCCUCAGAGCUCGAGAACAUCUUCGGAUGCAGAGGAGGCAGGCUUCGGUGGCGCGAUAGCGCCAACGUCCUCAACCUCCAAUGCAUCCCACCACAUGAUGAUGCCUGAAGAGCCUUGGUUUUUUG

Variants of: B1
Test: polymerase ribozyme fitness, log enrichment relative to wild type (log ratio); higher = more active; in vitro selection for triplet polymerase activity
How it was run: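 Libraries of mutants in each subunit of a heterodimeric triplet polymerase ribozyme were generated by PCR and transcribed. In triplicate, each went through one in vitro selection round: annealing with biotinylated primer, partner subunit and triplets; frozen incubation at −7 °C; gel excision of extended constructs; streptavidin-bead capture; RT-PCR. Fitness, taken from Illumina sequencing of input and output libraries, is the logarithm of a genotype's enrichment over wild-type enrichment, averaged across replicates with inverse-variance weights. The logarithm is base 2, and genotypes needed ≥10 input reads and ≥1 read per output to be kept.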
For GACCAAUCUGCCCUCAGAGCUCGAGAACAUCUUCGGAUGCAGAGGAGACAGGCUUCGGUGGCGCGAUAUCGCCAACGUCCUCAACCUCCAAUGCAUCCCACCACAUGAUGAUGCCUGAAGAGUCUUGGUUUUUUG [G48A G69U C123U], the “polymerase ribozyme fitness (log ratio)” value was 0.885.
For GACCAAUCUGCCCUCAGAGCUCGAGAACAUCUUCGGAUGCAGAGGAGGCAGGCUUCGGUGGUGCGAUAGCGCCAACGUCCUCAACCUCCAAUGCAUCCCACCACAUGAUGAUGCCUGGAGAGCCUUGGUUUUUUG [C62U A118G], the “polymerase ribozyme fitness (log ratio)” value was 0.164.
For GACCAAUCUGCCCUCAGAGCUCGAGAACAUCUUCGGAUGCAGAGGAGGCAGGCUUCGGUGGCGCGAUAGCGCCAACGUCCUCAACCUCAAAUGCAUCCCACCACAUGAUGAAGCCUGAAGAGCCUUGGUUUUUUG [C89A U112A], the “polymerase ribozyme fitness (log ratio)” value was -1.53.
In the case of GACCAAUCUGCCCUCAGAGCUCGAGAACAUCUUCGGAUGCAGAGGAGGCAGGCUUCGGUGGCGCGAUAGCGCCAACGUCCUCAACCUCCAAUGCAUCCCACCACAUGAUGCUGCCUGAAGACCCUUGGUUUUUUG [A111C G122C], the “polymerase ribozyme fitness (log ratio)” value is reported as -1.39.
With GACCAAUCUGCCCUCAGAGCUCGAGAACAUCUUCGGAUGCAGAGGAGGCAGGCUUUGGUGGCGCGAUAGCGCCAACGUCCUCAACCUCCAAUUCAUCCCACCACAUGAUGAUGCCCGAAGAGCCUUGGUUUUUUG [C56U G93U U116C] the “polymerase ribozyme fitness (log ratio)” value was -1.7.
For GACCAAUCUGCCCUCAGAGCUCGAGAACAUCUUCGGAUGCAUAGGAGGCAGGGUUCGGUGGCGCGAUAGCGCCAACUUCCUCAACCUCCAAUGCAUCCCACCACAUGAUGAUGCCUGAAGAGCCUCGGUUUUUUG [G42U C53G G77U U126C], the “polymerase ribozyme fitness (log ratio)” value was -2.18.
With GACCAAUCUGCCUUCAGAGCUCGAGAACAUCUUCGGAUGCAGAUGAGGCAGGCUUCGAAGAUGCGAUAGCGCCAACGUCCUCAACCUCCAAUGCAUCCCACCACAUGAUGAUGCCUGAAGAGCCUUGGUUUUUUG [C13U G44U G58A U59A G61A C62U] the “polymerase ribozyme fitness (log ratio)” value was -2.38.
With GACCAAUCUGCCCUCAGAGCUCGAGAACGUCUUCGGAUGCAGAGGAGGCAGGCUGCGAUGGCGCGAUAGCGGCAACGUCCUCAACCUCCAAUGCAUCCCACCACAUGAUGAUGCCUGAAGAGCCUUGGUUCUGUG [A29G U55G G58A C72G U131C U133G] the “polymerase ribozyme fitness (log ratio)” value was -2.75.
With GACCAAUCUGCCCUCAGAGCUCGAGAACCUCUUCGGAUGCAGAGGAGGCAGGCUUCGGUGGCGCGAUAGCCCCAACGUCCUCAACCUCCAAUGCUUCCCACCACAUGAUGAUGCCUGAAGAGCUUUGGUUUUUUG [A29C G71C A95U C124U] the “polymerase ribozyme fitness (log ratio)” value was -4.83.
In the case of GACCAAUCUGGCCUCAGAGCUCGAGAACAUCUUUGGAUGCAGAGGAGGAAGGCUUCGGUGACGCGAUAGCGCCAACGUCCUCAACCUCCAAUGCAUCCCACCACAUGAUGAUGCCUGAAGAGUCUUGGUUUUUUG [C11G C34U C49A G61A C123U], the “polymerase ribozyme fitness (log ratio)” value is reported as -2.15.
For GACCAAUCUGCCCUCAGAGCUCGAGAACAUCUUCGGAUGCAGAGGAGGCAGGCUUCGGUGGCGCGAUAGCGCCAACGUCCUCAACCUCCAAUGCAUCCCACCACAUGAUGAUGCCUGAAAAGCCUUGGGUUUUUG [G120A U129G], the “polymerase ribozyme fitness (log ratio)” value was -0.391.
For GACCAAUCUGCCCUCAGAGCUCGAGAACAUCUUCGGAUGCAGAGGAGGCAGGCUUCGGUGGCGCGAUAGCGCCAACAUCCUCAACCUCAAAUGCAUCCCACCACAUGAUGAUGCCUGAAGAGCCUUGGUUUUUUG [G77A C89A], the “polymerase ribozyme fitness (log ratio)” value was -1.73.
For GACCAAUCUGCCCUCAGAGCUCGAGAACAUCUUCGGAUGCAGAGGAGGCAGGCUUCGGUGGCGCGAUAGCGGCAACGUCCUCAACCUCCGAUGCAUCCCACCACAUGAUUAUGCCUGAAGAGCCUUGGUUUUUUC [C72G A90G G110U G135C], the “polymerase ribozyme fitness (log ratio)” value was -2.
With GACCAAUCUGCCCUCAGAGCUCGAGAACAUCUUCGGAUGCAGAGGAGGCAGGCUUCGGUGGCGCGAUAGCGCCAACGUCCUCAACCUCCAAUGCAUCCCAGCACAUGAUGAAGCCAGAAGAGCCUAUGUUUUUUG [C101G U112A U116A U126A G127U] the “polymerase ribozyme fitness (log ratio)” value was -2.86.
For GACCAAGCUGCCCUCAGAGCUCGAGAACAUCUUCGGAUGCAGAGGCGGCAGGCUUCGGUGGCGCGAUAGCGCCAACGUCCUCAACCUCCAAUGCAUUCCACCACAUGAUGAUGCCUGAAUAGCCUUUGUUUUUUG [U7G A46C C97U G120U G127U], the “polymerase ribozyme fitness (log ratio)” value was 0.436.
For GACCAAUCUGCCCUCAGAGCUCGAGAACAUCUUCGGAUGCAGAGGAGGCAGGCUUCGGUGGCGCGAUAGCGCCAACGUCCUGAACCUCCAAUGCCUCCCACCACAUGAUUAUGCCUGAAGAGCCUUGGUUUUUUG [C82G A95C G110U], the “polymerase ribozyme fitness (log ratio)” value was -3.96.
For GACCAAUCUGCCCUCAGAGCUCGAGAACAUCUUCGGAUGCGGAGGAGGCAGGUUUCGGUGGCGCGAUAGCGCCAACAUCCUCAACCUCCAAUGCAUCCCACCACAUGGUGAUGCCUGAAGAGCCUUGGUUUUUUG [A41G C53U G77A A108G], the “polymerase ribozyme fitness (log ratio)” value was -2.63.
In the case of GACCAAUCAGCUCUCAGAGCUCGAGACCAUCUUCGGAUGCAGAGGAGGCAGGUUUCGGUGGCACGAUAGCGCCAACGUCCUCCACCUCCAAUGCAUCCCACCACAUGAUGAUGCCUGAAGAGCCUUGGUUUUUUG [U9A C12U A27C C53U G63A A83C], the “polymerase ribozyme fitness (log ratio)” value is reported as -4.89.
For GACCAAUCUGCCCUCAGAGCUCGAGAACAUCUUCGGAUGCAGAGGAGGCAGUCUUCGGUGGCGCGAUAGCGCCAACGUCCUCAACCUCCAAUGCAUCCCACCACAUGAUGAUGCCUGAAGAGCCUUGGUCUUUUG [G52U U130C], the “polymerase ribozyme fitness (log ratio)” value was -0.807.
In the case of GACCAAUUUGCCCUCAGAGCUCGAGAACAUCUUCGGAUGCAGAGGAGGCAGGCUUCGGUUGCGCGAUAGCGCCAACGUCCUCAACCUCCAAUGCAUCCCACCACAAGAUGAUGCCUGAAGAACCUUGGUUUUUUG [C8U G60U U106A G122A], the “polymerase ribozyme fitness (log ratio)” value is reported as 0.855.
With GACCAAUCUGCCCUCAGAGCUCGAGAACAUCUUAGGAUGCAGAGGAGGCAGGCUUCGGUGGCGCGAUAGCGCCAACGUCCUCAACCUCCAAUGCAUCCCACCACAUGAUGAUGGCUGAAGAGCCUUGGUUUUUUG [C34A C114G] the “polymerase ribozyme fitness (log ratio)” value was -5.41.
